Source: patent US11325966

Assays:
Assay in all cases: cell-based or functional assay
[1] = molecular target: HIV-1 Env of pseudovirus 1006_11_C3_1601 (HIV-1)
[2] = molecular target: HIV-1 Env of pseudovirus 1056_10_TA11_1826 (HIV-1)
[3] = molecular target: HIV-1 Env of pseudovirus 191084 B7-19 (HIV-1)
[4] = molecular target: HIV-1 Env of pseudovirus 191821_E6_1 (HIV-1)
[5] = molecular target: HIV-1 Env of pseudovirus 211-9 (HIV-1)
[6] = molecular target: HIV-1 Env of pseudovirus 246F C1G (HIV-1)
[7] = molecular target: HIV-1 Env of pseudovirus 249M B10 (HIV-1)
[8] = molecular target: HIV-1 Env of pseudovirus 3301.v1.c24 (HIV-1)
[9] = molecular target: HIV-1 Env of pseudovirus 6041.v3.c23 (HIV-1)
[10] = molecular target: HIV-1 Env of pseudovirus 620345.c01 (HIV-1)
[11] = molecular target: HIV-1 Env of pseudovirus 62357_14_D3_4589 (HIV-1)
[12] = molecular target: HIV-1 Env of pseudovirus 6480.v4.c25 (HIV-1)
[13] = molecular target: HIV-1 Env of pseudovirus 89-F1_2_25 (HIV-1)
[14] = molecular target: HIV-1 Env of pseudovirus 928-28 (HIV-1)
[15] = molecular target: HIV-1 Env of pseudovirus A07412M1.vrc12 (HIV-1)
[16] = molecular target: HIV-1 Env of pseudovirus AC10.0.29 (HIV-1)
[17] = molecular target: HIV-1 Env of pseudovirus BJOX010000.06.2 (HIV-1)
[18] = molecular target: HIV-1 Env of pseudovirus C4118.c09 (HIV-1)
[19] = molecular target: HIV-1 Env of pseudovirus CAAN5342.A2 (HIV-1)
[20] = molecular target: HIV-1 Env of pseudovirus CAP45.2.00.G3 (HIV-1)
[21] = molecular target: HIV-1 Env of pseudovirus CNE5 (HIV-1)
[22] = molecular target: HIV-1 Env of pseudovirus CNE52 (HIV-1)
[23] = molecular target: HIV-1 Env of pseudovirus CNE58 (HIV-1)
[24] = molecular target: HIV-1 Env of pseudovirus Ce0393_C3 (HIV-1)
[25] = molecular target: HIV-1 Env of pseudovirus Ce2010_F5 (HIV-1)
[26] = molecular target: HIV-1 Env of pseudovirus Ce2060_G9 (HIV-1)
[27] = molecular target: HIV-1 Env of pseudovirus Ce703010054_2A2 (HIV-1)
[28] = molecular target: HIV-1 Env of pseudovirus Du156.12 (HIV-1)
[29] = molecular target: HIV-1 Env of pseudovirus HIV-001428-2.42 (HIV-1)
[30] = molecular target: HIV-1 Env of pseudovirus HIV-16055-2.3 (HIV-1)
[31] = molecular target: HIV-1 Env of pseudovirus Q769.d22 (HIV-1)
[32] = molecular target: HIV-1 Env of pseudovirus R2184.c04 (HIV-1)
[33] = molecular target: HIV-1 Env of pseudovirus SC05_8C11_2344 (HIV-1)
[34] = molecular target: HIV-1 Env of pseudovirus SC422661.8 (HIV-1)
[35] = molecular target: HIV-1 Env of pseudovirus T250-4 (HIV-1)
[36] = molecular target: HIV-1 Env of pseudovirus T255-34 (HIV-1)
[37] = molecular target: HIV-1 Env of pseudovirus T257-31 (HIV-1)
[38] = molecular target: HIV-1 Env of pseudovirus TRO.11 (HIV-1)
[39] = molecular target: HIV-1 Env of pseudovirus X2088_c9 (HIV-1)
[40] = molecular target: HIV-1 Env of pseudovirus ZM109F.PB4 (HIV-1)

PGT121 (antibody)
IC50 in TZM-bl assay [1]: 0.002 µg/mL | IC80 in TZM-bl assay [1]: 0.008 µg/mL | IC50 in TZM-bl assay [2]: 0.034 µg/mL | IC80 in TZM-bl assay [2]: 0.148 µg/mL | IC50 in TZM-bl assay [3]: 0.038 µg/mL | IC80 in TZM-bl assay [3]: 0.118 µg/mL | IC50 in TZM-bl assay [4]: > 10 µg/mL | IC80 in TZM-bl assay [4]: > 10 µg/mL | IC50 in TZM-bl assay [5]: 0.866 µg/mL | IC80 in TZM-bl assay [5]: 6.63 µg/mL | IC50 in TZM-bl assay [6]: 0.082 µg/mL | IC80 in TZM-bl assay [6]: 0.363 µg/mL | IC50 in TZM-bl assay [7]: > 10 µg/mL | IC80 in TZM-bl assay [7]: > 10 µg/mL | IC50 in TZM-bl assay [8]: 0.013 µg/mL | IC80 in TZM-bl assay [8]: 0.041 µg/mL | IC50 in TZM-bl assay [9]: > 10 µg/mL | IC80 in TZM-bl assay [9]: > 10 µg/mL | IC50 in TZM-bl assay [10]: > 10 µg/mL | IC80 in TZM-bl assay [10]: > 10 µg/mL | IC50 in TZM-bl assay [11]: 6.21 µg/mL | IC80 in TZM-bl assay [11]: > 10 µg/mL | IC50 in TZM-bl assay [12]: 0.008 µg/mL | IC50 in TZM-bl assay [13]: > 10 µg/mL | IC80 in TZM-bl assay [13]: > 10 µg/mL | IC50 in TZM-bl assay [14]: > 10 µg/mL | IC80 in TZM-bl assay [14]: > 10 µg/mL | IC50 in TZM-bl assay [15]: 0.034 µg/mL | IC80 in TZM-bl assay [15]: 0.255 µg/mL | IC50 in TZM-bl assay [16]: 0.019 µg/mL | IC80 in TZM-bl assay [16]: 0.06 µg/mL | IC50 in TZM-bl assay [17]: > 10 µg/mL | IC80 in TZM-bl assay [17]: > 10 µg/mL | IC50 in TZM-bl assay [18]: > 10 µg/mL | IC80 in TZM-bl assay [18]: > 10 µg/mL | IC50 in TZM-bl assay [19]: 0.008 µg/mL | IC80 in TZM-bl assay [19]: 0.026 µg/mL | IC50 in TZM-bl assay [20]: 1.3 µg/mL | IC80 in TZM-bl assay [20]: > 10 µg/mL | IC50 in TZM-bl assay [21]: > 10 µg/mL | IC80 in TZM-bl assay [21]: > 10 µg/mL | IC50 in TZM-bl assay [22]: 4.91 µg/mL | IC80 in TZM-bl assay [22]: > 10 µg/mL | IC50 in TZM-bl assay [23]: > 10 µg/mL | IC80 in TZM-bl assay [23]: > 10 µg/mL | IC50 in TZM-bl assay [24]: > 10 µg/mL | IC80 in TZM-bl assay [24]: > 10 µg/mL | IC50 in TZM-bl assay [25]: > 10 µg/mL | IC80 in TZM-bl assay [25]: > 10 µg/mL | IC50 in TZM-bl assay [26]: > 10 µg/mL | IC80 in TZM-bl assay [26]: > 10 µg/mL | IC50 in TZM-bl assay [27]: > 10 µg/mL | IC80 in TZM-bl assay [27]: > 10 µg/mL | IC50 in TZM-bl assay [28]: 0.006 µg/mL | IC80 in TZM-bl assay [28]: 0.019 µg/mL | IC50 in TZM-bl assay [29]: 0.02 µg/mL | IC80 in TZM-bl assay [29]: 0.126 µg/mL | IC50 in TZM-bl assay [30]: 0.772 µg/mL | IC80 in TZM-bl assay [30]: 7.99 µg/mL | IC50 in TZM-bl assay [31]: > 10 µg/mL | IC80 in TZM-bl assay [31]: > 10 µg/mL | IC50 in TZM-bl assay [32]: > 10 µg/mL | IC80 in TZM-bl assay [32]: > 10 µg/mL | IC50 in TZM-bl assay [33]: 0.03 µg/mL | IC80 in TZM-bl assay [33]: 0.108 µg/mL | IC50 in TZM-bl assay [34]: 0.079 µg/mL | IC80 in TZM-bl assay [34]: 0.373 µg/mL | IC50 in TZM-bl assay [35]: 0.003 µg/mL | IC80 in TZM-bl assay [35]: 0.009 µg/mL | IC50 in TZM-bl assay [36]: 2.63 µg/mL | IC80 in TZM-bl assay [36]: > 10 µg/mL | IC50 in TZM-bl assay [37]: > 10 µg/mL | IC80 in TZM-bl assay [37]: > 10 µg/mL | IC80 in TZM-bl assay [38]: 0.037 µg/mL | IC50 in TZM-bl assay [39]: 0.007 µg/mL | IC50 in TZM-bl assay [40]: 8.92 µg/mL | IC80 in TZM-bl assay [40]: > 10 µg/mL
